Test results as given in publication PMC3858372, “Cell Cycle-Dependent Turnover of 5-Hydroxymethyl Cytosine in Mouse Embryonic Stem Cells”.

T1: Uhrf1 (Np95) SRA domain (mouse, UniProt Q8VDF2 405-613)
T1 sequence: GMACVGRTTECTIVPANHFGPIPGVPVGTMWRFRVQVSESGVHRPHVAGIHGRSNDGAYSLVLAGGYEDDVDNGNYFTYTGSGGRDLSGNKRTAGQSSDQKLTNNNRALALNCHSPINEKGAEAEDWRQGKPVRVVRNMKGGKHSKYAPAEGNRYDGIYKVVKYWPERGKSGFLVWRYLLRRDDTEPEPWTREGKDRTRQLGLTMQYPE

B1: CG/5mCG (hemi-methylated 12-bp) (dsDNA)
DNA 1: CTACCGGATTGC
DNA 2: GCAATCCGGTAG
modifications: 5mC at position 7 of strand 2 (GCAATCXGGTAG, X = 5mC)

How the values were obtained:
His-GST-MBD1 (1-75) = experiment: pull-down; conditions: 2 pg fragment mixed with 10 ug genomic DNA, 4 C overnight, q-PCR read-out, 5mC, PCR product, methylation procedure not detailed, EMSA/competition: 25 mM HEPES-NaOH pH 7.4, 0.1 M NaCl, 0.1 mM TCEP, 250 ng poly(dI-dC)(dI-dC), 30 min, 7.5% native PAGE in 1x TBE
Uhrf1 (Np95) SRA domain = target: T1, Uhrf1 (Np95) SRA domain; experiment: EMSA; 0-3 uM SRA, 1 uM DNA, 250 ng poly(dI-dC); EMSA/competition: 25 mM HEPES-NaOH pH 7.4, 0.1 M NaCl, 0.1 mM TCEP, 250 ng poly(dI-dC)(dI-dC), 4 C, 30 min; 7.5% native PAGE in 1x TBE; conditions: protein: recombinant; blunt

Row | Molecule | binding signal (His-GST-MBD1 (1-75)) | binding result (Uhrf1 (Np95) SRA domain)
1 | methylated histone H3 DNA fragment | 90 % recovered | 
2 | B1 |  | binds
